# Reference: publication PMC9279676, “ERK2 MAP kinase regulates SUFU binding by multisite phosphorylation of GLI1” (Life Science Alliance, 2022)
# T1: full-length human SUFU protein, 35S-radiolabeled (human, UniProt Q9UMX1-1 1-484, [35S]-methionine label)
# T1 chain: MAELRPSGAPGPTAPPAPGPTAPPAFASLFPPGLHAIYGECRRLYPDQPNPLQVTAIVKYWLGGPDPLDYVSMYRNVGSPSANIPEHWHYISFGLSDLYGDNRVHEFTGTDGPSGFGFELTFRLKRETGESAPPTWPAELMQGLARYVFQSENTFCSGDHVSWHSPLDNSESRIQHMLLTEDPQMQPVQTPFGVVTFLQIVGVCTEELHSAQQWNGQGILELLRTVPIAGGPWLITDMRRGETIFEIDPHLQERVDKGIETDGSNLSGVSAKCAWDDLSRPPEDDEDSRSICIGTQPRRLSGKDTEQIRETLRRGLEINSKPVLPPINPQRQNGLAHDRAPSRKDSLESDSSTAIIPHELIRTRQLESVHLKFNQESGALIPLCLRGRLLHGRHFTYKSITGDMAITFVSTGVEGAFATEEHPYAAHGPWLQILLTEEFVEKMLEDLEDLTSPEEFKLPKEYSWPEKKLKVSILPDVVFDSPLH
# T2: full-length human SUFU protein, 35S-radiolabeled (human, UniProt Q9UMX1-1 1-484, [35S]-methionine label)
# T2 construct: human SUFU, full length, residues 1-484, from plasmid pGEM4Z-SUFU; also called 35S-SUFU; radiolabeled SUFU; source: in vitro transcription and translation (SP6, Promega), partially purified by ammonium sulfate precipitation
# T2 sequence (looked up): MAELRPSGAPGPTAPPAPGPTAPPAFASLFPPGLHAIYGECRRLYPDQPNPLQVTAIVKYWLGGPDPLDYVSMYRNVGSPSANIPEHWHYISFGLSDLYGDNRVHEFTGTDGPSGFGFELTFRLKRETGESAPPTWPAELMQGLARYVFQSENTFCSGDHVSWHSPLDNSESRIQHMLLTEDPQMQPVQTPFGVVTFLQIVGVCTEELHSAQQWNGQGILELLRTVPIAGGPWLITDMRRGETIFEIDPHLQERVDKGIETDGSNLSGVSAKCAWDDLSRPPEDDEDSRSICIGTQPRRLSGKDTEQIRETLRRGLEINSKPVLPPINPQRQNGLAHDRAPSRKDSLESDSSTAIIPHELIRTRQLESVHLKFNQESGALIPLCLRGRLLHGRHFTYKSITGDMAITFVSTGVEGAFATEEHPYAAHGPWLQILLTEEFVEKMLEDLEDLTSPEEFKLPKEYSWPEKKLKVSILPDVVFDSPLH
# Biological target: T1, full-length human SUFU protein, …
# Assay: GLI1 phosphorylated by ERK2
# Conditions: not given
row,Kd,Binder
1,118 nM,"GST-GLI1_(68-232), wild type, phosphorylated by ERK2 (domain or fragment, human, UniProt P08151-1 68-232, looked up, phosphorylated by ERK2 to ∼3 mol phosphate per mole; most efficient sites Ser116 and Ser130, followed by Ser102 and Ser201, vector pGEX-LB; also called ERK2-phosphorylated GLI1; WT + ERK2; source: bacteria, purified (glutathione-Sepharose); then phosphorylated with purified active ERK2 (2 h, 30°C)) FSSPRSAVKLTKKRALSISPLSDASLDLQTVIRTSPSSLVAFINSRCTSPGGSYGHLSIGTMSPSLGFPAQMNHQKGPSPSFGVQPCGPHDSARGGMIPHPQSRGPFPTCQLKSELDMLVGKCREEPLEGDMSSPNSTGIQDPLLGMLDGREDLEREEKREPESV"

# Biological target: T2, full-length human SUFU protein, …
# Assay: pull-down; purified GST-GLI1_(68-232) variants (mock treated or ERK2 phosphorylated), 0 or 1.25-80 nM, on glutathione-Sepharose beads; ∼1 pmol 35S-SUFU in 200 μl; 15 min at 30°C, then 1 h at room temperature; Binding Buffer (20 mM Tris-HCl pH 7.5, 125 mM KOAc, 0.5 mM EDTA, 5 mM DTT, 0.1% Tween20, 12.5% glycerol) + 1 mg/ml BSA; bound SUFU quantified by SDS-PAGE and Phosphorimager; Kd from binding isotherms
# Conditions: one partner purified
row,Kd,Binder
1,93 nM,"GST-GLI1_(68-232), wild type, phosphorylated by ERK2 (domain or fragment, human, UniProt P08151-1 68-232, looked up, phosphorylated by ERK2 to ∼3 mol phosphate per mole; most efficient sites Ser116 and Ser130, followed by Ser102 and Ser201, vector pGEX-LB; also called ERK2-phosphorylated GLI1; WT + ERK2; source: bacteria, purified (glutathione-Sepharose); then phosphorylated with purified active ERK2 (2 h, 30°C)) FSSPRSAVKLTKKRALSISPLSDASLDLQTVIRTSPSSLVAFINSRCTSPGGSYGHLSIGTMSPSLGFPAQMNHQKGPSPSFGVQPCGPHDSARGGMIPHPQSRGPFPTCQLKSELDMLVGKCREEPLEGDMSSPNSTGIQDPLLGMLDGREDLEREEKREPESV"
2,14 nM,"GST-GLI1^S116 (GST-GLI1_(68-232), only S116 intact), mock treated (domain or fragment, human, UniProt P08151-1 68-232, looked up, only the SP site S116 intact; also called S116 one site only; source: bacteria, purified (glutathione-Sepharose); mock treated (no ERK2)) FSAPRSAVKLTKKRALSIAPLSDASLDLQTVIRTAPSSLVAFINSRCTSPGGSYGHLSIGTMAPSLGFPAQMNHQKGPAPSFGVQPCGPHDSARGGMIPHPQSRGPFPTCQLKSELDMLVGKCREEPLEGDMSAPNSTGIQDPLLGMLDGREDLEREEKREPESV"
3,~23 nM,"GST-GLI1^7A (GST-GLI1_(68-232) with all seven SP serines changed to alanine), mock treated (domain or fragment, human, UniProt P08151-1 68-232, looked up, source: bacteria, purified (glutathione-Sepharose); mock treated (no ERK2)) FSAPRSAVKLTKKRALSIAPLSDASLDLQTVIRTAPSSLVAFINSRCTAPGGSYGHLSIGTMAPSLGFPAQMNHQKGPAPSFGVQPCGPHDSARGGMIPHPQSRGPFPTCQLKSELDMLVGKCREEPLEGDMSAPNSTGIQDPLLGMLDGREDLEREEKREPESV"
4,2.6 nM,"GST-GLI1^SSS (GST-GLI1_(68-232) S70A S86A S146A S201A), mock treated (domain or fragment, human, UniProt P08151-1 68-232, looked up, only S102, S116 and S130 left intact; source: bacteria, purified (glutathione-Sepharose); mock treated (no ERK2)) FSAPRSAVKLTKKRALSIAPLSDASLDLQTVIRTSPSSLVAFINSRCTSPGGSYGHLSIGTMSPSLGFPAQMNHQKGPAPSFGVQPCGPHDSARGGMIPHPQSRGPFPTCQLKSELDMLVGKCREEPLEGDMSAPNSTGIQDPLLGMLDGREDLEREEKREPESV"
5,20 nM,"GST-GLI1^AAA, treated with active ERK2 (domain or fragment, human, UniProt P08151-1 68-232, looked up, treated with ERK2; S70, S86, S146 and S201 remained intact as possible phosphosites, also called GLI1^AAA + ERK2; source: bacteria, purified (glutathione-Sepharose); then phosphorylated with purified active ERK2) FSSPRSAVKLTKKRALSISPLSDASLDLQTVIRTAPSSLVAFINSRCTAPGGSYGHLSIGTMAPSLGFPAQMNHQKGPSPSFGVQPCGPHDSARGGMIPHPQSRGPFPTCQLKSELDMLVGKCREEPLEGDMSSPNSTGIQDPLLGMLDGREDLEREEKREPESV"
6,127 nM,"GST-GLI1^SSS, phosphorylated by ERK2 (domain or fragment, human, UniProt P08151-1 68-232, looked up, phosphorylated by ERK2; intact SP sites S102, S116, S130, only S102, S116 and S130 left intact; also called ERK-phosphorylated GLI1^SSS; phosphorylated GLI1^SSS mutant; source: bacteria, purified (glutathione-Sepharose); then phosphorylated with purified active ERK2) FSAPRSAVKLTKKRALSIAPLSDASLDLQTVIRTSPSSLVAFINSRCTSPGGSYGHLSIGTMSPSLGFPAQMNHQKGPAPSFGVQPCGPHDSARGGMIPHPQSRGPFPTCQLKSELDMLVGKCREEPLEGDMSAPNSTGIQDPLLGMLDGREDLEREEKREPESV"
7,14 ± 4 nM,"GST-GLI1^S102, phosphorylated by ERK2 (domain or fragment, human, UniProt P08151-1 68-232, looked up, phosphorylated by ERK2; only intact SP site S102, only the SP site S102 intact; also called ERK2-treated GLI1^S102; source: bacteria, purified (glutathione-Sepharose); then phosphorylated with purified active ERK2) FSAPRSAVKLTKKRALSIAPLSDASLDLQTVIRTSPSSLVAFINSRCTAPGGSYGHLSIGTMAPSLGFPAQMNHQKGPAPSFGVQPCGPHDSARGGMIPHPQSRGPFPTCQLKSELDMLVGKCREEPLEGDMSAPNSTGIQDPLLGMLDGREDLEREEKREPESV"
8,17 nM,"GST-GLI1^AAA (GST-GLI1_(68-232) S102A S116A S130A), mock treated (domain or fragment, human, UniProt P08151-1 68-232, looked up, source: bacteria, purified (glutathione-Sepharose); mock treated (no ERK2)) FSSPRSAVKLTKKRALSISPLSDASLDLQTVIRTAPSSLVAFINSRCTAPGGSYGHLSIGTMAPSLGFPAQMNHQKGPSPSFGVQPCGPHDSARGGMIPHPQSRGPFPTCQLKSELDMLVGKCREEPLEGDMSSPNSTGIQDPLLGMLDGREDLEREEKREPESV"
9,~23 nM,"GST-GLI1^7A, treated with active ERK2 (domain or fragment, human, UniProt P08151-1 68-232, looked up, treated with ERK2; only minimally phosphorylated, also called 7A+ERK2; ERK2-treated GLI1^7A; source: bacteria, purified (glutathione-Sepharose); then treated with purified active ERK2) FSAPRSAVKLTKKRALSIAPLSDASLDLQTVIRTAPSSLVAFINSRCTAPGGSYGHLSIGTMAPSLGFPAQMNHQKGPAPSFGVQPCGPHDSARGGMIPHPQSRGPFPTCQLKSELDMLVGKCREEPLEGDMSAPNSTGIQDPLLGMLDGREDLEREEKREPESV"
10,25 ± 3 nM,"GST-GLI1^S102,S130, phosphorylated by ERK2 (domain or fragment, human, UniProt P08151-1 68-232, looked up, phosphorylated by ERK2; intact SP sites S102, S130, only the SP sites S102 and S130 intact; also called ERK2-treated GLI1^S102,S130; source: bacteria, purified (glutathione-Sepharose); then phosphorylated with purified active ERK2) FSAPRSAVKLTKKRALSIAPLSDASLDLQTVIRTSPSSLVAFINSRCTAPGGSYGHLSIGTMSPSLGFPAQMNHQKGPAPSFGVQPCGPHDSARGGMIPHPQSRGPFPTCQLKSELDMLVGKCREEPLEGDMSAPNSTGIQDPLLGMLDGREDLEREEKREPESV"
